This note sets out measurements from patent US20240327530A1 (ICHNOS SCIENCES, published 2024).

In general, Kd refers to the equilibrium constant for the complex coming apart.

In one test the target is T1, gg-hs-hs IL-1RAP.
T1 construct: chicken/human IL-1RAP chimera; also called IL-1RAP-ECD(ggD1(S139-P246)-hsD2(V132-V233)-hsD3(V234-E359))-Avi-His; gg-hs-hs-IL-1RAP-ECD-avi-his
T1 single chain: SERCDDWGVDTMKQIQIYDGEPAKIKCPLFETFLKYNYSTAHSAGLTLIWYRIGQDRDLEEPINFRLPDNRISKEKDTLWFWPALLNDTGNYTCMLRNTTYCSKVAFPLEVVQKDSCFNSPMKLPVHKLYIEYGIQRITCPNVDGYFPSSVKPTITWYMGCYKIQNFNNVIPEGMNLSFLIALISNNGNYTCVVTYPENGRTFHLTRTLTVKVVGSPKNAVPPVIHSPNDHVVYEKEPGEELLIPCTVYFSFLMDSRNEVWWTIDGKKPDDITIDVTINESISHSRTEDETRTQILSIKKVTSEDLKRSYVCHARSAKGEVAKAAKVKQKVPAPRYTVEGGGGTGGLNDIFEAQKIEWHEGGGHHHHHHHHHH
Nature of the test: SPR, IgG1 LALA captured on anti-human IgG Fc CM5 chip, chimera injected at 50 nM. The procedure: Human-chicken IL-1RAP chimeras were injected over immobilized anti-IL-1RAP IgG1 LALA at 50 nM in HBS-EP+ buffer followed by a dissociation in HBS-EP+ buffer. “hs” stands for a human domain and “gg” stands for a chicken domain. Human-chicken chimeras are then described by their respective human or chicken domains in successive order, e.g. hs-gg-gg IL-1RAP stands for IL-1RAP with human domain 1, chicken domain 2 and chicken domain 3. Plots show data expressed as number of resonance units (abbreviated RU; Y axis) vs. time (X axis).
Domain of IL-1RAP targeted by IgG1 LALA clones was identified by SPR binding assay. Around 150 RU of IgG1 LALA was immobilized on the fc2 of a Series S CM5 sensor chip previously coated with anti-human IgG Fc (BIACORE™, GE […]®, catalog no. BR100839) using a commercial amine coupling kit (BIACORE™, GE […]®, catalog no. BR100050). Human IL-1RAP-avi-his, chicken IL-1RAP-avi-his, chimeric protein comprising chicken domain 1 of IL-RAP fused to human domain 2 and 3 of IL-1RAP (gg-hs-hs-IL-1RAP-ECD-avi-his) and chimeric protein comprising chicken domain 1 and 2 of IL-1RAP fused to human domain 3 of IL-1RAP (gg-gg-hs-IL-1RAP-avi-his) were injected individually at 50 nM in HBS-EP+ for 3 min over fc1 and fc2 (fc1 being used as reference), followed by dissociation in HBS-EP+ buffer for 5 min. […]
(SPR reads the build-up and loss of mass on a sensor chip optically.)

The target in test [1] is T2, Recombinant mouse IL-1RAP Fc fusion protein (Sino Biologicals, catalog no. 52657-M02H) (mouse, UniProt Q61730 21-350).
T2 construct: Bought; not shown: Fc part of the bought fusion protein
T2 sequence: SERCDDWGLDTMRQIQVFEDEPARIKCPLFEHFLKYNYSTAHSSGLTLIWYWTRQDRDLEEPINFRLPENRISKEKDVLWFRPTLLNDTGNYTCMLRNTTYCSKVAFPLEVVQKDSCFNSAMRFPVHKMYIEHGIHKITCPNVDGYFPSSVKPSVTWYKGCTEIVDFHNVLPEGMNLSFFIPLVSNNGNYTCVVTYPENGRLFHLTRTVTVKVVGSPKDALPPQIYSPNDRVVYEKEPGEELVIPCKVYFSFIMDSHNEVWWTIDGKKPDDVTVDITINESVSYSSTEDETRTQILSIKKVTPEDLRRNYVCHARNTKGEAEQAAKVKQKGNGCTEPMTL
As to the kind of experiment: SPR, mouse IL-1RAP-Fc captured, Fab as analyte. The procedure:
(§1) Surface plasmon resonance (SPR) was used to measure the binding affinities of the Fab fragments for human, cynomolgus monkey and/or mouse IL-1RAP. Affinities were measured on a BIACORE™ T200 instrument (BIACORE™, GE […]®) at 25° C. and analyzed with the BIACORE™ T200 Evaluation Software (v3.1). Measurements were performed on Series S CM5 sensor chips (BIACORE™ T200, BIACORE™, GE […]®, catalog no. BR100530) coupled with anti-human IgG Fc (BIACORE™, GE […]®, catalog no. BR100839) using a commercial amine coupling kit (BIACORE™, GE […]®, catalog no. BR100050) or on Series S BiotinCAPture chips (BIACORE™, GE […]®, catalog no. 28920234). SPR measurements were performed with commercially available recombinant human IL-1RAP Fc fusion protein (Acrobiosystems, catalog no. ILP-H5256) and recombinant mouse IL-1RAP Fc fusion protein (Sino Biologicals, catalog no. 52657-M02H) or with biotinylated recombinant cynomolgus monkey IL-1RAP-avi-his protein produced in-house (SEQ ID NO. 2).
(§2) The affinities to human, cynomolgus monkey and mouse IL-1RAP were assessed by immobilizing IL-1RAP and using Fab fragments as analyte. Around 100 RU of human or mouse IL-1RAP Fc fusion protein were captured on fc2 of a Series S CM5 sensor chip coupled with anti-human IgG Fc and around 150 RU of biotinylated cynomolgus monkey IL-1RAP protein were captured on fc2 of a Series S BiotinCAPture chip. Fab fragments were injected in single cycle kinetic at different concentrations ranging from 7.8 to 500 nM, in HBS-EP+ buffer (BIACORE™, GE […]®, catalog no. BR100669) at a flow rate of 30 μl/min for 3 min on fc1 and fc2 (fc1 being used as reference). Dissociation was monitored for 5 min. After each cycle, the surface was regenerated with 60 μl of regeneration solution provided with anti-human IgG Fc capture kit (BIACORE™, GE […]®, catalog no. BR100839) or BiotinCAPture kit (BIACORE™, GE […]®, catalog no. 28920234) respectively. Experimental data were processed using the 1:1 Langmuir kinetic fitting model. Measurements included zero-concentration samples for referencing. Chi², U- and residual values were used to evaluate the quality of a fit between the experimental data and individual binding models.

Test [2] concerns the target T3, Recombinant human IL-1RAP Fc fusion protein (Acrobiosystems, catalog no. ILP-H5256) (human, UniProt Q9NPH3 21-359, limits assumed).
T3 construct: Bought; not shown: Fc part of the bought fusion protein
T3 sequence: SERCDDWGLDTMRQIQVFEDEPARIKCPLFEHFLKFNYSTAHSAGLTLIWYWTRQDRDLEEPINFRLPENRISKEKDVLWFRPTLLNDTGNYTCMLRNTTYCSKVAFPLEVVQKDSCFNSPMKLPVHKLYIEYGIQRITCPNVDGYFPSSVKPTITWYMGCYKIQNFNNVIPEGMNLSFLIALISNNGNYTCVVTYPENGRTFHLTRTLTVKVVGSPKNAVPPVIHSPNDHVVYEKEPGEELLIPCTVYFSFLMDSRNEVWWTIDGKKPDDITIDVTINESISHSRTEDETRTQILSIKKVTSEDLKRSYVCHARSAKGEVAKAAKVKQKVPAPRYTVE
Nature of the test: SPR, human IL-1RAP-Fc captured, Fab as analyte, 1:1 fit. The procedure:
as §1, §2

The target in test [3] is T4, Recombinant cynomolgus monkey IL-1RAP-ECD(S21-E359)-avi-his protein (cynomolgus monkey, UniProt P59822 21-359 (rhesus entry)).
T4 construct: also called cyno IL-1RAP-ECD-Avi-His; recombinant cynomolgus monkey IL-1RAP-avi-his protein
T4 sequence: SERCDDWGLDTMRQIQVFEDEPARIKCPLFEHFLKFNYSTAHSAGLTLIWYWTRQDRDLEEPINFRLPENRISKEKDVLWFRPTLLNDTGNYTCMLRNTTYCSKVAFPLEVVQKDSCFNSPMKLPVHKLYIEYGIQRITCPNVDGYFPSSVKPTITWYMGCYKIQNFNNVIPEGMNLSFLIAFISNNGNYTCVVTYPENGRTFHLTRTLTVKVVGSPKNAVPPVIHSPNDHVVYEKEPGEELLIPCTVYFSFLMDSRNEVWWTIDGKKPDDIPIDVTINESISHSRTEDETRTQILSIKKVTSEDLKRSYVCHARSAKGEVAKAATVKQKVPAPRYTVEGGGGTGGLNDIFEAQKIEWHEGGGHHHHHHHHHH
As to the kind of experiment: SPR, biotinylated cyno IL-1RAP-avi-his captured, Fab as analyte. The procedure: as §1
(§3) The affinities to human, cynomolgus monkey and mouse IL-1RAP were assessed by immobilizing IL-1RAP and using Fab fragments as analyte. […] Dissociation was monitored for 5 min. […]

For test [4], the target named is T4, Recombinant cynomolgus monkey …. As to the kind of experiment: SPR, Fab as analyte. The procedure:
as §1, §3

Test [5] concerns the target T2, Recombinant mouse IL-1RAP Fc fusion …. As to the kind of experiment: SPR, mouse IL-1RAP-Fc captured, Fab as analyte, 1:1 fit. The procedure: as §1, §3
The target in test [6] is T4, Recombinant cynomolgus monkey …. Nature of the test: SPR, biotinylated cyno IL-1RAP-avi-his captured, Fab as analyte, 1:1 fit. The procedure: as §1, §2

B1: anti-IL-1RAP-C8 IgG1 LALA (antibody, V domains shown)
VH: QVQLVQSGAEVKKPGSSVKVSCKASGGQFSEYAIQWVRQAPGQGLEWMGYIIPLHGQVDYAQKFQGRVTITADESTSTAYMELSSLRSEDTAVYYCARGQTLYDSGRQFDIWGQGTLVTVSS
VL: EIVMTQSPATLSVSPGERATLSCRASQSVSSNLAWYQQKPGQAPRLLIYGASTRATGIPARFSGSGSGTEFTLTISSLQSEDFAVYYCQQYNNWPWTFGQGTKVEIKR
notes: Human IgG1 with L234A/L235A (EU)
For the molecule B1, the binding result in the test with gg-hs-hs IL-1RAP is “binds”.

B2: Anti-IL-1RAP-UCP02-B5-Fab (Fab, V domains shown)
VH: QVQLVQSGAEVKKPGSSVKVSCKASGGYFSAYIISWVRQAPGQGLEWMGGIVPQYGYATYAQKFQGRVTITADESTSTAYMELSSLRSEDTAVYYCARGRSTTYYGFAYWGQGTLVTVSS
VL: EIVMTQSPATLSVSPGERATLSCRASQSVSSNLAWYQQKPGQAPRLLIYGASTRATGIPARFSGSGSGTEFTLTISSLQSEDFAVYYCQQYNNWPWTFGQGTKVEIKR
For B2, the binding result in test [1] and in test [3] was “no binding (tested: 7.8 to 500 nM Fab)” throughout. The Kd in test [2] is 311 nM.

B3: anti-IL-1RAP-C3 IgG1 LALA (antibody, V domains shown)
VH: EVQLLESGGGLVQPGGSLRLSCAASGFTFRDYAMGWVRQAPGKGLEWVSAISYDGEGTLYADSVKGRFTISRDNSKNTLYLQMNSLRAEDTAVYYCARFRYYTAFDYWGQGTLVTVSS
VL: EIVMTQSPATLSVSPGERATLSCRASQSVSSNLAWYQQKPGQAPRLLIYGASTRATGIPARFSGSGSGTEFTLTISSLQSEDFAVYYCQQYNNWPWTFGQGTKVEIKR
notes: as for B1
Take B3: the binding result with gg-hs-hs IL-1RAP was “binds”.

B4: Anti-IL-1RAP-UCP02-C3-Fab (Fab, V domains shown)
VH: B3 VH
VL: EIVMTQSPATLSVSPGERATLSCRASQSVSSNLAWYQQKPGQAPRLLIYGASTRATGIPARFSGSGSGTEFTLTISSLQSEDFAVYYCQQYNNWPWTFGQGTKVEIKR
notes: also called anti-IL-1RAP-C3; anti-IL-1RAP-C3 Fab
B4: the “fold lower affinity than to human IL-1RAP” value in test [4] is roughly 40 fold. Besides, the figures for the Kd in test [2], in test [5] and in test [6] were 2.8 nM, 0.63 nM and 110 nM, respectively.

B5: Anti-IL-1RAP-UCP04-C1-Fab (Fab, V domains shown)
VH: EVQLLESGGGLVQPGGSLRLSCAASGFTFSAYTMSWVRQAPGKGLEWVSAISYEGDGTLYADSVKGRFTISRDNSKNTLYLQMNSLRAEDTAVYYCARSLYWSGFDYWGQGTLVTVSS
VL: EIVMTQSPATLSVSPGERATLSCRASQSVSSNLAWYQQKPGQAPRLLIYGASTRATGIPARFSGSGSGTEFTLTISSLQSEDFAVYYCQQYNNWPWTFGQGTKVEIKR
For B5, the Kd in test [2] came to 16 nM; in test [5] it was 3.54 nM. The binding result in test [3] was “no binding (tested: 7.8 to 500 nM Fab)”.
